Results: US20210244815A1 (Genentech, published 2021)

What was measured:
CD3ε = target: T1, CD3ε (UniProt P07766 23-126, limits assumed); experiment: SPR, Biacore T200, CD3ε immobilized on CM5, Fab injected
T1 construct: The antigen in the Biacore assay is called only 'CD3ε'; also called CD3ε antigen
Procedure: The binding affinity of selected Fab variants for CD3ε was measured by SPR with a BIACORE® T200 instrument. Briefly, a series S sensor chip CM5 was activated with 1-ethyl-3-(3-dimethylaminopropyl) carbodiimide (EDC) and N-hydroxysuccinimide (NHS) reagents according to the supplier's instructions, and 5 μg/ml CD3ε in 10 mM sodium acetate (pH4.0) was coupled to achieve 100 response units (RU), except for FC1 (which served as a reference). Unreacted groups were then blocked with 1 M ethanolamine. Next, three-fold serial dilutions of Fab in HBS-P buffer (0.01 M HEPES pH 7.4, 0.15M NaCl, 0.005% surfactant P20) from low (0.02 nM) to high (20 nM) were injected (flow rate: 30 μl/min). The binding responses on Fab were corrected by subtracting of RU from a blank flow cell. The sensorgram was recorded and subject to reference and buffer subtraction before evaluating by BIACORE® T200 Evaluation Software (Version 2.0). Association rates (kₐ) and dissociation rates (kd) were calculated using a simple one-to-one Langmuir binding model. The equilibrium dissociation constant (KD) was calculated as the ratio of kd/kₐ. The binding affinity kinetics were determined for a high-affinity anti-CD3 Fab, 38E4v11, having the heavy chain and light chain variable domain sequences set forth in FIG. 1.

CD3 = experiment: method not stated
CD3, sequence (P07766 22-207): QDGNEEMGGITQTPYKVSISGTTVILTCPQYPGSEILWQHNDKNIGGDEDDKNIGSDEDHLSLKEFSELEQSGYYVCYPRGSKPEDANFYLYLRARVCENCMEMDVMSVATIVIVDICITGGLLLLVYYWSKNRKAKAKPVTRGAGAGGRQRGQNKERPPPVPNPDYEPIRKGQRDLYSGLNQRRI

T1 sequence (P07766 23-126 limits assumed): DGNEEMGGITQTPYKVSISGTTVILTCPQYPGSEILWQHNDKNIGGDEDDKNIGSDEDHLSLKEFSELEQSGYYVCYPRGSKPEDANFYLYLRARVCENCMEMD

B1: anti-CD3 Fab 38E4v11 (Fab, V domains shown)
VH: EVQLVQSGAEVKKPGASVKVSCKASGFTFTSYYIHWVRQAPGQGLEWIGWIYPENDNTKYNEKFKDRVTITADTSTSTAYLELSSLRSEDTAVYYCARDGYSRYYFDYWGQGTLVTVSS
VL: DIVMTQSPDSLAVSLGERATINCKSSQSLLNSRTRKNYLAWYQQKPGQSPKLLIYWTSTRKSGVPDRFSGSGSGTDFTLTISSLQAEDVAVYYCTQSFILRTFGQGTKVEIK
notes: Tested as a Fab from a mammalian Fab expression construct with a Flag tag (293T cells, purified on an anti-Flag column)
For B1, the “fold increase in binding affinity relative to parent 38E4v1” value (CD3ε) was > 10 fold.

B2: Ly6G6D (40G5c) TDB (bispecific antibody, part only; not given: anti-Ly6G6D arm and constant regions, V domains shown, not shown: another chain or arm of the molecule; a dimerising Fc or GST; small tags and cut ends)
VH: QVQLQQSGPELVKPGASVKISCKASGYTFTNYYIHWVKQRPGQGLEWIGWIYPGDGNTKYNEKFKGKATLTADTSSSTAYMQLSSLTSEDSAVYYCARDSYSNYYFDYWGQGTTLTVSS
VL: DIVMTQSPSSLAVSAGEKVTMSCKSSQSLLNSRTRKNYLAWYQQKPGQSPKLLIYWASTRESGVPDRFTGSGSGTDFTLTISSVQAEDLAVYYCTQSFILRTFGGGTKLEIK
B2 gave a Kd (CD3) of 51 nM.
